Legend:
[1] = target: ectodomain of RGMB (eRGMB), wild type (human) (UniProt Q6NW40); assay: AUC
[2] = target: ectodomain of RGMB (eRGMB), wild type (human) (UniProt Q6NW40); assay: multiangle light scattering
eRGMB-P206N (human) = eRGMB-P206N (human) (UniProt Q6NW40); assay: AUC
[3] = target: ectodomain of RGMB (eRGMB), wild type (human) (UniProt Q6NW40); assay: AUC; remark: listed apart in the source
[4] = target: RGMA, full-length ectodomain (human) (UniProt Q96B86); assay: SPR
[5] = target: RGMC, full-length ectodomain (human) (UniProt Q6ZVN8); assay: SPR
Chain of UniProt Q6ZVN8 (Q6ZVN8 36-400): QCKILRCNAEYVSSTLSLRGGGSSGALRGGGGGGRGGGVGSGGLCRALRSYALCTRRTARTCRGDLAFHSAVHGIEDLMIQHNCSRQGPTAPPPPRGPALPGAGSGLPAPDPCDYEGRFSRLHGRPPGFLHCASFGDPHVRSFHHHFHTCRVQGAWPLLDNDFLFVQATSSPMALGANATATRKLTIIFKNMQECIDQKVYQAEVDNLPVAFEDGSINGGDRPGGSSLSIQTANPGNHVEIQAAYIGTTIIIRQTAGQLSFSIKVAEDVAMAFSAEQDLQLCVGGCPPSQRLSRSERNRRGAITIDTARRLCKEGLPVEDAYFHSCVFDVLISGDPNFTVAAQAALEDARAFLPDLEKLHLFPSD

[6] = target: ectodomain of RGMB (eRGMB), wild type (human) (UniProt Q6NW40); assay: SPR

Chain of UniProt Q96B86 (Q96B86 48-424): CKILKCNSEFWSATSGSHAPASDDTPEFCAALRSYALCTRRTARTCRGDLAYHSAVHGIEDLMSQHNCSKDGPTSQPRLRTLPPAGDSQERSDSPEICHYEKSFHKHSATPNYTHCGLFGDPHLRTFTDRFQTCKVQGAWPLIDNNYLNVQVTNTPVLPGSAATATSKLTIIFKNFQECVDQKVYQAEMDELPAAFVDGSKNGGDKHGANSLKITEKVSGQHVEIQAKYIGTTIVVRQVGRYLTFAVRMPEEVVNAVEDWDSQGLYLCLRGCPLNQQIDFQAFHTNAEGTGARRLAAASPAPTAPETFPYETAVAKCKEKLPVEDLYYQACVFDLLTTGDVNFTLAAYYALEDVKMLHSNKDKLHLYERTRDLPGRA

NEO1_FN56M (from UniProt P97798 883-1136) (domain or fragment)
stoichiometry N [1]: 1 | stoichiometry N [2]: 1 | stoichiometry N (eRGMB-P206N (human)): 1 | stoichiometry N [3]: 1

full-length DCC ectodomain (from UniProt P43146 26-1097) (domain or fragment)
interaction relative to the equivalent NEO1 construct [4]: 0.001 fold | interaction relative to the equivalent NEO1 construct [5]: 0.001 fold | interaction relative to the equivalent NEO1 construct [6]: 0.001 fold

Source: PMC4730555
